B1: Speckle-type POZ protein (Homo sapiens), O43791 (parent)
chain: MSRVPSPPPPAEMSSGPVAESWCYTQIKVVKFSYMWTINNFSFCREEMGEVIKSSTFSSGANDKLKWCLRVNPKGLDEESKDYLSLYLLLVSCPKSEVRAKFKFSILNAKGEETKAMESQRAYRFVQGKDWGFKKFIRRDFLLDEANGLLPDDKLTLFCEVSVVQDSVNISGQNTMNMVKVPECRLADELGGLWENSRFTDCCLCVAGQEFQAHKAILAARSPVFSAMFEHEMEESKKNRVEINDVEPEVFKEMMCFIYTGKAPNLDKMADDLLAAADKYALERLKVMCEDALCSNLSVENAAEILILADLHSADQLKTQAVDFINYHASDVLETSGWKSMVVSHPHLVAEAYRSLASAQCPFLGPPRKRLKQS

Variants of: B1
Settings: with mk06_human MAPK6, Q16659

Question: With MSRVPSPPPPAEMSSGPVAESWCYTQIKVVKFSYMWTINNFSFCREEMGEVIKSSTFSSGANDKLKWCLRVNPKGLDEESKDYLSLCLLLVSCPKSEVRAKFKFSILNAKGEETKAMESQRAYRFVQGKDWGFKKFIRRDFLLDEANGLLPDDKLTLFCEVSVVQDSVNISGQNTMNMVKVPECRLADELGGLWENSRFTDCCLCVAGQEFQAHKAILAARSPVFSAMFEHEMEESKKNRVEINDVEPEVFKEMMCFIYTGKAPNLDKMADDLLAAADKYALERLKVMCEDALCSNLSVENAAEILILADLHSADQLKTQAVDFINYHASDVLETSGWKSMVVSHPHLVAEAYRSLASAQCPFLGPPRKRLKQS [Y87C] as the variant, how does the “effect of a mutation on the interaction” value read?
Answer: with no effect

Variants of: B1
Settings: with sin1_human MAPKAP1, Q9BPZ7
sin1_human MAPKAP1, Q9BPZ7, sequence (Q9BPZ7 whole entry): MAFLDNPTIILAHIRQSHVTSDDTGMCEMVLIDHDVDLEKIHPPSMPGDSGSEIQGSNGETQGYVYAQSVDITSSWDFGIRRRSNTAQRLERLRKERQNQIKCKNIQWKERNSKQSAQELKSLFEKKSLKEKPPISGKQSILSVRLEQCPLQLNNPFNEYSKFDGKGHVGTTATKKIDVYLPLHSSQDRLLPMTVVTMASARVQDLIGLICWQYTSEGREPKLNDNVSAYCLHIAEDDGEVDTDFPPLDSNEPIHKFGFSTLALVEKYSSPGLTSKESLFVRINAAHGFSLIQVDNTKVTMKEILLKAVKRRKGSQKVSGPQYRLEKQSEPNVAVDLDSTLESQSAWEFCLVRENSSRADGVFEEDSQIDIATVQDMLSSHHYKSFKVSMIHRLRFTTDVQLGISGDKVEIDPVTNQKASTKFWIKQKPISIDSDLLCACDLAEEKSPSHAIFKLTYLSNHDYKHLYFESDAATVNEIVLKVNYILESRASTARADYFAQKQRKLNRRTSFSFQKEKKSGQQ

Question: How did the “effect of a mutation on the interaction” value turn out when MSRVPSPPPPAEMSSGPVAESWCYTQIKVVKFSYMWTINNFSFCREEMGEVIKSSTFSSGANDKLKWCLRVNPKGLDEESKDYLSLCLLLVSCPKSEVRAKFKFSILNAKGEETKAMESQRAYRFVQGKDWGFKKFIRRDFLLDEANGLLPDDKLTLFCEVSVVQDSVNISGQNTMNMVKVPECRLADELGGLWENSRFTDCCLCVAGQEFQAHKAILAARSPVFSAMFEHEMEESKKNRVEINDVEPEVFKEMMCFIYTGKAPNLDKMADDLLAAADKYALERLKVMCEDALCSNLSVENAAEILILADLHSADQLKTQAVDFINYHASDVLETSGWKSMVVSHPHLVAEAYRSLASAQCPFLGPPRKRLKQS [Y87C] was run?
Answer: with no effect

Variants of: B1
Settings: with mcl1_human MCL1, Q07820
mcl1_human MCL1, Q07820, sequence (Q07820 whole entry): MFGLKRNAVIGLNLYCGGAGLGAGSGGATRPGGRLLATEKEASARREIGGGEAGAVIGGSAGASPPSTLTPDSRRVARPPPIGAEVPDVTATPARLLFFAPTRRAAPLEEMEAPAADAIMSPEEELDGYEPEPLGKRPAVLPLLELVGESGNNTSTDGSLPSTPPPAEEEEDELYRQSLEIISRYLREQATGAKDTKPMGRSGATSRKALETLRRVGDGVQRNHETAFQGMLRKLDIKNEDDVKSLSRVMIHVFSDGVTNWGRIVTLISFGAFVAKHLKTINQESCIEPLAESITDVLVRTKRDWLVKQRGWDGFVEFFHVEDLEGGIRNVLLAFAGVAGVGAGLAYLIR

Question: Which “effect of a mutation on the interaction” value does the source give for MSRVPSPPPPAEMSSGPVAESWCYTQIKVVKFSYMWTINNFSFCREEMGEVIKSSTFSSGANDKLKWCLRVNPKGLDEESKDYLSLCLLLVSCPKSEVRAKFKFSILNAKGEETKAMESQRAYRFVQGKDWGFKKFIRRDFLLDEANGLLPDDKLTLFCEVSVVQDSVNISGQNTMNMVKVPECRLADELGGLWENSRFTDCCLCVAGQEFQAHKAILAARSPVFSAMFEHEMEESKKNRVEINDVEPEVFKEMMCFIYTGKAPNLDKMADDLLAAADKYALERLKVMCEDALCSNLSVENAAEILILADLHSADQLKTQAVDFINYHASDVLETSGWKSMVVSHPHLVAEAYRSLASAQCPFLGPPRKRLKQS [Y87C] here?
Answer: with no effect

Variants of: B1
Settings: with mdm2_human MDM2, Q00987
mdm2_human MDM2, Q00987, sequence (Q00987 whole entry, looked up): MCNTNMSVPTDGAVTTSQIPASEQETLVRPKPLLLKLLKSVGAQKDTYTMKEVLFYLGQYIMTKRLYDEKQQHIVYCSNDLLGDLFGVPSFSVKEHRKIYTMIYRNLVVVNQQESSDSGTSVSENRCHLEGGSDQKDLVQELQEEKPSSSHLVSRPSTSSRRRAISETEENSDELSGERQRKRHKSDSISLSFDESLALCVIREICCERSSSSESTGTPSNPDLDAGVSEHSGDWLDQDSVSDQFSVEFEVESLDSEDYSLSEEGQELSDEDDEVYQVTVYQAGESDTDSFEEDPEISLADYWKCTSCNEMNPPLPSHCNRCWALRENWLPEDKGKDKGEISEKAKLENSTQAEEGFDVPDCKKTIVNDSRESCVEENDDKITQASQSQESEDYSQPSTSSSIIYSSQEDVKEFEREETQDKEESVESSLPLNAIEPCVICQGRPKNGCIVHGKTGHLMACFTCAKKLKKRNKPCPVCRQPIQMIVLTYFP

Question: With MSRVPSPPPPAEMSSGPVAESWCYTQIKVVKFSYMWTINNFSFCREEMGEVIKSSTFSSGANDKLKWCLRVNPKGLDEESKDYLSLCLLLVSCPKSEVRAKFKFSILNAKGEETKAMESQRAYRFVQGKDWGFKKFIRRDFLLDEANGLLPDDKLTLFCEVSVVQDSVNISGQNTMNMVKVPECRLADELGGLWENSRFTDCCLCVAGQEFQAHKAILAARSPVFSAMFEHEMEESKKNRVEINDVEPEVFKEMMCFIYTGKAPNLDKMADDLLAAADKYALERLKVMCEDALCSNLSVENAAEILILADLHSADQLKTQAVDFINYHASDVLETSGWKSMVVSHPHLVAEAYRSLASAQCPFLGPPRKRLKQS [Y87C] as the variant, how does the “effect of a mutation on the interaction” value read?
Answer: with no effect

Variants of: B1
Settings: with mitf_human MITF

Question: For MSRVPSPPPPAEMSSGPVAESWCYTQIKVVKFSYMWTINNFSFCREEMGEVIKSSTFSSGANDKLKWCLRVNPKGLDEESKDYLSLCLLLVSCPKSEVRAKFKFSILNAKGEETKAMESQRAYRFVQGKDWGFKKFIRRDFLLDEANGLLPDDKLTLFCEVSVVQDSVNISGQNTMNMVKVPECRLADELGGLWENSRFTDCCLCVAGQEFQAHKAILAARSPVFSAMFEHEMEESKKNRVEINDVEPEVFKEMMCFIYTGKAPNLDKMADDLLAAADKYALERLKVMCEDALCSNLSVENAAEILILADLHSADQLKTQAVDFINYHASDVLETSGWKSMVVSHPHLVAEAYRSLASAQCPFLGPPRKRLKQS [Y87C], which “effect of a mutation on the interaction” value is on record?
Answer: with no effect

Variants of: B1
Settings: with mlh1_human MLH1, P40692
mlh1_human MLH1, P40692, sequence (P40692 whole entry): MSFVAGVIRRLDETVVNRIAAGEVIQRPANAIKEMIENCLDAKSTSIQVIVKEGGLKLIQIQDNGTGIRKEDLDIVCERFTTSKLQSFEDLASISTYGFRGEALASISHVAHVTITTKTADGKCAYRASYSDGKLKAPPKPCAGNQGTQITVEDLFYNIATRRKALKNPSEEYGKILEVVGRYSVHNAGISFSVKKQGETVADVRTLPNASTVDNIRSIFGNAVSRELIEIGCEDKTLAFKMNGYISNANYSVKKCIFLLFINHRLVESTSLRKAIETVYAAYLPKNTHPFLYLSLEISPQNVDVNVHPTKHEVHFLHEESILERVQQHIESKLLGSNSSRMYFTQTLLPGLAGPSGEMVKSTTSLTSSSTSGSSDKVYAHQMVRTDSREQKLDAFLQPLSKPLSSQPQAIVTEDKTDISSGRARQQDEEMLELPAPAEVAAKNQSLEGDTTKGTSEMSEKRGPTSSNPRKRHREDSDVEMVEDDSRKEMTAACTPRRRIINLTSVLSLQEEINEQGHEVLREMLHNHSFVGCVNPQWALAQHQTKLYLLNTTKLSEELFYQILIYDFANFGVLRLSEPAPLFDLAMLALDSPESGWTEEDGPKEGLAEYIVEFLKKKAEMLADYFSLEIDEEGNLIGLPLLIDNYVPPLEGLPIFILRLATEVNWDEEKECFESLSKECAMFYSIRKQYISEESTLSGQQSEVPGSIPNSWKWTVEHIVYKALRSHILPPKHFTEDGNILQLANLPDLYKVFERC

Question: Which “effect of a mutation on the interaction” value does the source give for MSRVPSPPPPAEMSSGPVAESWCYTQIKVVKFSYMWTINNFSFCREEMGEVIKSSTFSSGANDKLKWCLRVNPKGLDEESKDYLSLCLLLVSCPKSEVRAKFKFSILNAKGEETKAMESQRAYRFVQGKDWGFKKFIRRDFLLDEANGLLPDDKLTLFCEVSVVQDSVNISGQNTMNMVKVPECRLADELGGLWENSRFTDCCLCVAGQEFQAHKAILAARSPVFSAMFEHEMEESKKNRVEINDVEPEVFKEMMCFIYTGKAPNLDKMADDLLAAADKYALERLKVMCEDALCSNLSVENAAEILILADLHSADQLKTQAVDFINYHASDVLETSGWKSMVVSHPHLVAEAYRSLASAQCPFLGPPRKRLKQS [Y87C] here?
Answer: with no effect

Variants of: B1
Settings: with mtor_human MTOR

Question: For MSRVPSPPPPAEMSSGPVAESWCYTQIKVVKFSYMWTINNFSFCREEMGEVIKSSTFSSGANDKLKWCLRVNPKGLDEESKDYLSLCLLLVSCPKSEVRAKFKFSILNAKGEETKAMESQRAYRFVQGKDWGFKKFIRRDFLLDEANGLLPDDKLTLFCEVSVVQDSVNISGQNTMNMVKVPECRLADELGGLWENSRFTDCCLCVAGQEFQAHKAILAARSPVFSAMFEHEMEESKKNRVEINDVEPEVFKEMMCFIYTGKAPNLDKMADDLLAAADKYALERLKVMCEDALCSNLSVENAAEILILADLHSADQLKTQAVDFINYHASDVLETSGWKSMVVSHPHLVAEAYRSLASAQCPFLGPPRKRLKQS [Y87C], which “effect of a mutation on the interaction” value is on record?
Answer: with no effect

Variants of: B1
Settings: with mybb_human MYBL2, P10244
mybb_human MYBL2, P10244, sequence (P10244 whole entry): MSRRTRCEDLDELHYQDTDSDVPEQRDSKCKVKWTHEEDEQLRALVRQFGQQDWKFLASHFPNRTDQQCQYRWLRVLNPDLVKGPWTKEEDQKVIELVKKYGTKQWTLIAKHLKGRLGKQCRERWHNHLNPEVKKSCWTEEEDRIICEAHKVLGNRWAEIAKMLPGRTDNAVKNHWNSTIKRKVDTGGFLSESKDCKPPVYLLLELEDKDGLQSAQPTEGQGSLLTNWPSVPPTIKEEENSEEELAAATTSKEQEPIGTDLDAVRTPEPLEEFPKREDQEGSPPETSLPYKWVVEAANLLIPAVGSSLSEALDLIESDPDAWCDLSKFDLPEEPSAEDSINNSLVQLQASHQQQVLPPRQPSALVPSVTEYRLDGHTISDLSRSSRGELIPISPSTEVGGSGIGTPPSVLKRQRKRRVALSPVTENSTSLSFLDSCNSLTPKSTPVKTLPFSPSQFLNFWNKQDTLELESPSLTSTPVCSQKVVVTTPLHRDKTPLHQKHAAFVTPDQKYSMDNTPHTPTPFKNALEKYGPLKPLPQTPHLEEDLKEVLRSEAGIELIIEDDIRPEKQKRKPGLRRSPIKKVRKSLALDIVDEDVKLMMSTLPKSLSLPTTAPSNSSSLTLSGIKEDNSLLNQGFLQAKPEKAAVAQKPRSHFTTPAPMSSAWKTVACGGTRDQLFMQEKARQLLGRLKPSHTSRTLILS

Question: MSRVPSPPPPAEMSSGPVAESWCYTQIKVVKFSYMWTINNFSFCREEMGEVIKSSTFSSGANDKLKWCLRVNPKGLDEESKDYLSLCLLLVSCPKSEVRAKFKFSILNAKGEETKAMESQRAYRFVQGKDWGFKKFIRRDFLLDEANGLLPDDKLTLFCEVSVVQDSVNISGQNTMNMVKVPECRLADELGGLWENSRFTDCCLCVAGQEFQAHKAILAARSPVFSAMFEHEMEESKKNRVEINDVEPEVFKEMMCFIYTGKAPNLDKMADDLLAAADKYALERLKVMCEDALCSNLSVENAAEILILADLHSADQLKTQAVDFINYHASDVLETSGWKSMVVSHPHLVAEAYRSLASAQCPFLGPPRKRLKQS [Y87C] was tested. Which “effect of a mutation on the interaction” value did it give?
Answer: with no effect

Variants of: B1
Settings: with myc_human MYC

Question: For MSRVPSPPPPAEMSSGPVAESWCYTQIKVVKFSYMWTINNFSFCREEMGEVIKSSTFSSGANDKLKWCLRVNPKGLDEESKDYLSLCLLLVSCPKSEVRAKFKFSILNAKGEETKAMESQRAYRFVQGKDWGFKKFIRRDFLLDEANGLLPDDKLTLFCEVSVVQDSVNISGQNTMNMVKVPECRLADELGGLWENSRFTDCCLCVAGQEFQAHKAILAARSPVFSAMFEHEMEESKKNRVEINDVEPEVFKEMMCFIYTGKAPNLDKMADDLLAAADKYALERLKVMCEDALCSNLSVENAAEILILADLHSADQLKTQAVDFINYHASDVLETSGWKSMVVSHPHLVAEAYRSLASAQCPFLGPPRKRLKQS [Y87C], which “effect of a mutation on the interaction” value is on record?
Answer: with no effect

Variants of: B1
Settings: with mycn_human MYCN

Question: For MSRVPSPPPPAEMSSGPVAESWCYTQIKVVKFSYMWTINNFSFCREEMGEVIKSSTFSSGANDKLKWCLRVNPKGLDEESKDYLSLCLLLVSCPKSEVRAKFKFSILNAKGEETKAMESQRAYRFVQGKDWGFKKFIRRDFLLDEANGLLPDDKLTLFCEVSVVQDSVNISGQNTMNMVKVPECRLADELGGLWENSRFTDCCLCVAGQEFQAHKAILAARSPVFSAMFEHEMEESKKNRVEINDVEPEVFKEMMCFIYTGKAPNLDKMADDLLAAADKYALERLKVMCEDALCSNLSVENAAEILILADLHSADQLKTQAVDFINYHASDVLETSGWKSMVVSHPHLVAEAYRSLASAQCPFLGPPRKRLKQS [Y87C], which “effect of a mutation on the interaction” value is on record?
Answer: with no effect

Variants of: B1
Settings: with ncoa3_human NCOA3, Q9Y6Q9
ncoa3_human NCOA3, Q9Y6Q9, sequence (Q9Y6Q9 whole entry, looked up): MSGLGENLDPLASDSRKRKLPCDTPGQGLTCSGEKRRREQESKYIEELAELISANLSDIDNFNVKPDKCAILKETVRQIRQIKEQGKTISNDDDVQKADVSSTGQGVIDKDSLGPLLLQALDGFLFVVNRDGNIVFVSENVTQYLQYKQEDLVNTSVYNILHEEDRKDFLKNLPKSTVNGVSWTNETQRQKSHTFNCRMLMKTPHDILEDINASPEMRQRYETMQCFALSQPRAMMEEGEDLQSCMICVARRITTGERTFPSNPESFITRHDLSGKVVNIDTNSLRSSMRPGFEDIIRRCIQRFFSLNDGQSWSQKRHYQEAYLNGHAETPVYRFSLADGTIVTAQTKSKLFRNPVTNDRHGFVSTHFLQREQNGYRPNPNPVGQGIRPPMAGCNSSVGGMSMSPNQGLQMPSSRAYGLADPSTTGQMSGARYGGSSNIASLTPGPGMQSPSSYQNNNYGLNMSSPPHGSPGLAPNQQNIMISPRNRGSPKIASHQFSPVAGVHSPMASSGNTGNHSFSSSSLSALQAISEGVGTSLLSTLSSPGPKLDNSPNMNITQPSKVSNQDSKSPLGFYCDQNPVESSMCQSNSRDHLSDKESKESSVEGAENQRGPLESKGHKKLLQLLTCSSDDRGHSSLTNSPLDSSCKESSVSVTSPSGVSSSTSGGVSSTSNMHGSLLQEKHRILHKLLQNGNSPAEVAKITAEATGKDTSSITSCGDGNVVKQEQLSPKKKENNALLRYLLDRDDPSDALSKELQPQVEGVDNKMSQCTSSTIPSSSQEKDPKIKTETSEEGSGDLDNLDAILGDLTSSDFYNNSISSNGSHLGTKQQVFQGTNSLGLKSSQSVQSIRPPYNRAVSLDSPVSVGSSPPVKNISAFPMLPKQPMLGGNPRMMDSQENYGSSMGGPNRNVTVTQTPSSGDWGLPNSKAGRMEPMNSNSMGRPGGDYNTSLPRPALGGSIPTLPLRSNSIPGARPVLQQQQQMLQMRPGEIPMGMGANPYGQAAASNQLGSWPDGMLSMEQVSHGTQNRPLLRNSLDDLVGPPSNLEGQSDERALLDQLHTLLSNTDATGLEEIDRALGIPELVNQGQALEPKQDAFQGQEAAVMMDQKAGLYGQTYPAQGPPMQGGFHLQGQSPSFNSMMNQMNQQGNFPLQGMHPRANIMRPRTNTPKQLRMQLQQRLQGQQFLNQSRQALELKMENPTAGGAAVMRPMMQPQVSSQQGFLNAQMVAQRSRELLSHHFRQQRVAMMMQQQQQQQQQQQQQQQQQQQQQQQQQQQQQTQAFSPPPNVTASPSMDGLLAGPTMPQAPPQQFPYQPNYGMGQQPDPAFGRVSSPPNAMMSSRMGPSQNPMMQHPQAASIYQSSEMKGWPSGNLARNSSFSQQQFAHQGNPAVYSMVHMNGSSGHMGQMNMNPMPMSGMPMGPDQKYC

Question: With MSRVPSPPPPAEMSSGPVAESWCYTQIKVVKFSYMWTINNFSFCREEMGEVIKSSTFSSGANDKLKWCLRVNPKGLDEESKDYLSLCLLLVSCPKSEVRAKFKFSILNAKGEETKAMESQRAYRFVQGKDWGFKKFIRRDFLLDEANGLLPDDKLTLFCEVSVVQDSVNISGQNTMNMVKVPECRLADELGGLWENSRFTDCCLCVAGQEFQAHKAILAARSPVFSAMFEHEMEESKKNRVEINDVEPEVFKEMMCFIYTGKAPNLDKMADDLLAAADKYALERLKVMCEDALCSNLSVENAAEILILADLHSADQLKTQAVDFINYHASDVLETSGWKSMVVSHPHLVAEAYRSLASAQCPFLGPPRKRLKQS [Y87C] as the variant, how does the “effect of a mutation on the interaction” value read?
Answer: with no effect

Variants of: B1
Settings: with merl_human NF2, P35240
merl_human NF2, P35240, sequence (P35240 whole entry): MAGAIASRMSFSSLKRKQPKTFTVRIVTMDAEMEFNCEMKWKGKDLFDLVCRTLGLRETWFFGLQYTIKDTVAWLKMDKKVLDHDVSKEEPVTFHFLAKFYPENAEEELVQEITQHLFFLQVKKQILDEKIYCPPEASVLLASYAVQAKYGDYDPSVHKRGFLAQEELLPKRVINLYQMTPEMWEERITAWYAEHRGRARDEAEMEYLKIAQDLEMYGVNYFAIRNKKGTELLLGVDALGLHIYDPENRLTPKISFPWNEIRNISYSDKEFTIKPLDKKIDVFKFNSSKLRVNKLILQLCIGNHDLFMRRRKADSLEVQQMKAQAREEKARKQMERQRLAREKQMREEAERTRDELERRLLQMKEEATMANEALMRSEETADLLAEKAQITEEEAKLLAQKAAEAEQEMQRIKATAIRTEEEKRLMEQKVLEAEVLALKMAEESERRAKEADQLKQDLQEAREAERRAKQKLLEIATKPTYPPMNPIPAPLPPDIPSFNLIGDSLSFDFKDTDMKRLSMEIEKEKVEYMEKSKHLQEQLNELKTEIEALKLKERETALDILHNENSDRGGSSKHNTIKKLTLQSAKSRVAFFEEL

Question: MSRVPSPPPPAEMSSGPVAESWCYTQIKVVKFSYMWTINNFSFCREEMGEVIKSSTFSSGANDKLKWCLRVNPKGLDEESKDYLSLCLLLVSCPKSEVRAKFKFSILNAKGEETKAMESQRAYRFVQGKDWGFKKFIRRDFLLDEANGLLPDDKLTLFCEVSVVQDSVNISGQNTMNMVKVPECRLADELGGLWENSRFTDCCLCVAGQEFQAHKAILAARSPVFSAMFEHEMEESKKNRVEINDVEPEVFKEMMCFIYTGKAPNLDKMADDLLAAADKYALERLKVMCEDALCSNLSVENAAEILILADLHSADQLKTQAVDFINYHASDVLETSGWKSMVVSHPHLVAEAYRSLASAQCPFLGPPRKRLKQS [Y87C] was tested. Which “effect of a mutation on the interaction” value did it give?
Answer: with no effect

Variants of: B1
Settings: with nfic_human NFIC

Question: How did the “effect of a mutation on the interaction” value turn out when MSRVPSPPPPAEMSSGPVAESWCYTQIKVVKFSYMWTINNFSFCREEMGEVIKSSTFSSGANDKLKWCLRVNPKGLDEESKDYLSLCLLLVSCPKSEVRAKFKFSILNAKGEETKAMESQRAYRFVQGKDWGFKKFIRRDFLLDEANGLLPDDKLTLFCEVSVVQDSVNISGQNTMNMVKVPECRLADELGGLWENSRFTDCCLCVAGQEFQAHKAILAARSPVFSAMFEHEMEESKKNRVEINDVEPEVFKEMMCFIYTGKAPNLDKMADDLLAAADKYALERLKVMCEDALCSNLSVENAAEILILADLHSADQLKTQAVDFINYHASDVLETSGWKSMVVSHPHLVAEAYRSLASAQCPFLGPPRKRLKQS [Y87C] was run?
Answer: with no effect

Variants of: B1
Settings: with ikba_human NFKBIA

Question: Which “effect of a mutation on the interaction” value does the source give for MSRVPSPPPPAEMSSGPVAESWCYTQIKVVKFSYMWTINNFSFCREEMGEVIKSSTFSSGANDKLKWCLRVNPKGLDEESKDYLSLCLLLVSCPKSEVRAKFKFSILNAKGEETKAMESQRAYRFVQGKDWGFKKFIRRDFLLDEANGLLPDDKLTLFCEVSVVQDSVNISGQNTMNMVKVPECRLADELGGLWENSRFTDCCLCVAGQEFQAHKAILAARSPVFSAMFEHEMEESKKNRVEINDVEPEVFKEMMCFIYTGKAPNLDKMADDLLAAADKYALERLKVMCEDALCSNLSVENAAEILILADLHSADQLKTQAVDFINYHASDVLETSGWKSMVVSHPHLVAEAYRSLASAQCPFLGPPRKRLKQS [Y87C] here?
Answer: with no effect

Variants of: B1
Settings: with notc2_human NOTCH2, Q04721

Question: With MSRVPSPPPPAEMSSGPVAESWCYTQIKVVKFSYMWTINNFSFCREEMGEVIKSSTFSSGANDKLKWCLRVNPKGLDEESKDYLSLCLLLVSCPKSEVRAKFKFSILNAKGEETKAMESQRAYRFVQGKDWGFKKFIRRDFLLDEANGLLPDDKLTLFCEVSVVQDSVNISGQNTMNMVKVPECRLADELGGLWENSRFTDCCLCVAGQEFQAHKAILAARSPVFSAMFEHEMEESKKNRVEINDVEPEVFKEMMCFIYTGKAPNLDKMADDLLAAADKYALERLKVMCEDALCSNLSVENAAEILILADLHSADQLKTQAVDFINYHASDVLETSGWKSMVVSHPHLVAEAYRSLASAQCPFLGPPRKRLKQS [Y87C] as the variant, how does the “effect of a mutation on the interaction” value read?
Answer: with no effect

From IntAct's records for PubMed 35512704
